The target in assay [1] is taxol-stabilized microtubules. Nature of the assay: bead binding to microtubules counted by DIC microscopy.
In assay [2] the target is dynamic microtubules grown from GMPCPP-stabilized microtubule seeds (bovine). The assay can be described thus: constant-force laser trap bead motility assay.

Consider “Dsn1-HIS-FLAG kinetochore particles from the ndc80-1 mutant strain (from UniProt P40568 1-576; P40460 1-691) (complex)”, for which, in assay [1], the microtubule-bound beads per field (beads per field) is 2.

In the case of “Dsn1-HIS-FLAG kinetochore particles from wild-type cells (from UniProt P40568 1-576) (complex)”, in assay [2], the mean attachment lifetime at 1 pN tension came out at 21 min and the mean attachment lifetime at 5 pN tension was determined as 50 min. Also, in assay [1], the microtubule-bound beads per field (beads per field) was determined as 22. Regarding “Dsn1-HIS-FLAG kinetochore particles from the dad1-1 mutant strain (from UniProt P40568 1-576; Q12248 1-94) (complex)”, the microtubule-bound beads per field (beads per field) in assay [1] was 18. For “Dsn1-HIS-FLAG kinetochore particles from the spc105-15 mutant strain (from UniProt P40568 1-576; P53148 1-917) (complex)”, the microtubule-bound beads per field (beads per field) in assay [1] was 4.

The record behind these values is PMC3108429.
